According to paper PMC6335423, “Recurrent activating mutations of PPARγ associated with luminal bladder tumors” (Nature Communications, 2019):
Ends that are not written are not given here.

How the values were obtained:
[1] = molecular target: T1, PPARγ ligand-binding domain, wild type, His-hPPARγ (231–505) (human, UniProt P37231-1 231-505); experiment: MST; with GW1929
T1 chain: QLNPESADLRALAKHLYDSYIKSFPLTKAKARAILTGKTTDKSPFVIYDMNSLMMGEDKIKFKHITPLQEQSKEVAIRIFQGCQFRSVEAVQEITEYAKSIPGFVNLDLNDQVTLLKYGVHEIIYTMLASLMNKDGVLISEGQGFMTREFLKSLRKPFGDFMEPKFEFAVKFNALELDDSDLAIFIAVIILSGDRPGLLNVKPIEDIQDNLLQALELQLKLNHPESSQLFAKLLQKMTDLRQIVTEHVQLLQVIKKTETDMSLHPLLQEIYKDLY

[2] = molecular target: T1, PPARγ ligand-binding domain, wild type, …; experiment: MST; apo (no ligand)
[3] = molecular target: T1, PPARγ ligand-binding domain, wild type, …; experiment: MST; with rosiglitazone
[4] = molecular target: T2, PPARγ ligand-binding domain, wild type, His-hPPARγ (231–505) (human, UniProt P37231-1 231-505); experiment: MST; no ligand; unlabeled PPARγ LBD (100 µM to 2 nM) titrated into 150 nM fluorescent PGC1α peptide; 20 mM Tris pH 8.0, 200 mM NaCl, 1 mM TCEP, 0.05% Tween 20, 25 °C; apparent Kd; details: both partners purified
T2 construct: Cloned in pET15b; also called PPARγ LBD WT; PPARγ WT; source: E. coli BL21 DE3, purified (Ni-NTA, size exclusion on Superdex 200)
T2 sequence (looked up): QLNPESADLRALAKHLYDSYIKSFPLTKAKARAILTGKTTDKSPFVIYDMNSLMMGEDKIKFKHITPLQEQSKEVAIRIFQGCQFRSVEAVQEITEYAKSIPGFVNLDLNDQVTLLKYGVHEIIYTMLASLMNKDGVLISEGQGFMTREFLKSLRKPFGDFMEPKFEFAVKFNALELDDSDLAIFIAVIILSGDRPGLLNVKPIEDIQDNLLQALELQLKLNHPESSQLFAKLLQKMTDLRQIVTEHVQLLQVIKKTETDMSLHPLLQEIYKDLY

[5] = molecular target: T2, PPARγ ligand-binding domain, wild type, …; experiment: native MS; native electrospray MS, 5 µM protein in 200 mM ammonium acetate pH 6.8; GW1929 and coactivator peptide added; details: both partners purified

B1: fluorescent PGC1α peptide (137-EAEEPSLLKKLLLAPA-152) (peptide)
peptide: EAEEPSLLKKLLLAPA
modifications: also: fluorescent label (dye and position not given here)
notes: PGC1α (PPARGC1A) residues 137-152, NR1 LXXLL motif; also called fluorescently labeled PGC1α peptide; PGC1α NR1 motif; source: bought: Thermo-Fisher (synthetic peptide)
For B1, the Kd [1] was 0.38 µM, the Kd [2] was 1.7 µM and the Kd [3] was 1 µM. B1: binds [4].

B2: PGC1α peptide (139-EEPSLLKKLLLAPA-152) (peptide)
peptide: EEPSLLKKLLLAPA
notes: PGC1α (PPARGC1A) residues 139-152; source: synthetic peptide (IGBMC peptide synthesis common facility)
B2: binds [5].
